Source: patent US20190203227A1 (WILLIAM MARSH RICE UNIVERSITY, published 2019)

Target: T1, wild-type recombinant adeno-associated virus serotype 2 (adeno-associated virus serotype 2, UniProt P03135 1-735; P03135 139-735; P03135 203-735)
T1 construct: Assembled virus capsid; Control virus without PIF6; also called wtAAV2; wtAAV
Test: Ni2+ column capture with immobilised PhyB, qPCR of viral genomes, far-red (730 nm) light

B1: PhyB917-His6 (other)
chain: MGASGVSGVGGSGGGRGGGRGGEEEPSSSHTPNNRRGGEQAQSSGTKSLRPRSNTESMSKAIQQYTVDARLHAVFEQSGESGKSFDYSQSLKTTTYGSSVPEQQITAYLSRIQRGGYIQPFGCMIAVDESSFRIIGYSENAREMLGIMPQSVPTLEKPEILAMGTDVRSLFTSSSSILLERAFVAREITLLNPVWIHSKNTGKPFYAILHRIDVGVVIDLEPARTEDPALSIAGAVQSQKLAVRAISQLQALPGGDIKLLCDTVVESVRDLTGYDRVMVYKFHEDEHGEVVAESKRDDLEPYIGLHYPATDIPQASRFLFKQNRVRMIVDCNATPVLVVQDDRLTQSMCLVGSTLRAPHGCHSQYMANMGSIASLAMAVIINGNEDDGSNVASGRSSMRLWGLVVCHHTSSRCIPFPLRYACEFLMQAFGLQLNMELQLALQMSEKRVLRTQTLLCDMLLRDSPAGIVTQSPSIMDLVKCDGAAFLYHGKYYPLGVAPSEVQIKDVVEWLLANHADSTGLSTDSLGDAGYPGAAALGDAVCGMAVAYITKRDFLFWFRSHTAKEIKWGGAKHHPEDKDDGQRMHPRSSFQAFLEVVKSRSQPWETAEMDAIHSLQLILRDSFKESEAAMNSKVVDGVVQPCRDMAGEQGIDELGAVAREMVRLIETATVPIFAVDAGGCINGWNAKIAELTGLSVEEAMGKSLVSDLIYKENEATVNKLLSRALRGDEEKNVEVKLKTFSPELQGKAVFVVVNACSSKDYLNNIVGVCFVGQDVTSQKIVMDKFINIQGDYKAIVHSPNPLIPPIFAADENTCCLEWNMAMEKLTGWSRSEVIGKMIVGEVFGSCCMLKGPDALTKFMIVLHNAIGGQDTDKFPFPFFDRNGKFVQALLTANKRVSLEGKVIGAFCFLQIPSPELQQALAVGGSHHHHHH
modifications: phycocyanobilin (PCB) chromophore bound after incubation with 5 uM PCB (residue not stated)
notes: Light-switchable phytochrome B fragment, immobilised on a Ni2+ column
binding result: no binding

B2: PhyB651-His6 (other)
chain: MVSGVGGSGGGRGGGRGGEEEPSSSHTPNNRRGGEQAQSSGTKSLRPRSNTESMSKAIQQYTVDARLHAVFEQSGESGKSFDYSQSLKTTTYGSSVPEQQITAYLSRIQRGGYIQPFGCMIAVDESSFRIIGYSENAREMLGIMPQSVPTLEKPEILAMGTDVRSLFTSSSSILLERAFVAREITLLNPVWIHSKNTGKPFYAILHRIDVGVVIDLEPARTEDPALSIAGAVQSQKLAVRAISQLQALPGGDIKLLCDTVVESVRDLTGYDRVMVYKFHEDEHGEVVAESKRDDLEPYIGLHYPATDIPQASRFLFKQNRVRMIVDCNATPVLVVQDDRLTQSMCLVGSTLRAPHGCHSQYMANMGSIASLAMAVIINGNEDDGSNVASGRSSMRLWGLVVCHHTSSRCIPFPLRYACEFLMQAFGLQLNMELQLALQMSEKRVLRTQTLLCDMLLRDSPAGIVTQSPSIMDLVKCDGAAFLYHGKYYPLGVAPSEVQIKDVVEWLLANHADSTGLSTDSLGDAGYPGAAALGDAVCGMAVAYITKRDFLFWFRSHTAKEIKWGGAKHHPEDKDDGQRMHPRSSFQAFLEVVKSRSQPWETAEMDAIHSLQLILRDSFKESEAAMNSKVVDGVVQPCRDMAGEQGIDELGAHHHHHH
modifications: phycocyanobilin (PCB) chromophore bound after incubation with 5 uM PCB (residue not stated)
binding result: no binding
